# Laboratory results reported in patent publication US10369187B2, “Peptide regulators of JNK family kinases” (Vanderbilt University, priority 2017, dated 2019).
# How the values were obtained:
# [1] = target: MKK7-JNK3 module (Homo sapiens, UniProt O14733+P53779); experiment: In vitro phosphorylation of JNK3α2 by MKK7 (reconstituted module); type: biochemical
# Method: Next, it was tested whether T1A acts as a scaffold facilitating signaling. To this end, experiments used purified proteins, because they provide the most definitive data supporting a direct interaction. As purified ASK1 is not available, MKK4-JNK3 and MKK7-JNK3 modules were reconstituted in the absence and presence of varying concentrations of synthetic purified T1A peptide and measured JNK3 phosphorylation (FIG. 2A). […] This dependence, where signaling is increased at lower scaffold concentrations and decreased at higher, was also found for scaffolding of these modules by full-length arrestin-3^20. It is believed to be a characteristic of simple scaffolds, which act by bringing the enzyme and substrate together, as lower scaffold concentrations make the formation of complete scaffold-enzyme-substrate ternary complexes likely, whereas higher concentrations increase the probability of formation of incomplete enzyme-scaffold and substrate-scaffold binary complexes, suppressing the signaling^25,26. […]
# JNK3α2^20,23, and MKK4 and MKK7^17,20 were expressed in E. coli and purified as previously described^40. The effect of arrestin-3 and MBP-T1A on the phosphorylation of JNK3α2 by MKK7 or MKK4 was analyzed by an in vitro kinase assay, as described^19,20. […] Phosphorylated JNK3α2 was visualized by rabbit anti-phospho JNK antibody (Cell Signaling) and the level of JNK phosphorylation was quantified.
# [2] = test system: MKK7-JNK3 module; experiment: JNK3 phosphorylation by co-expressed MKK7 in cells; type: cell-based, African green monkey; conditions: YFP-T1A co-expressed with MKK7 in COS7 cells
# Method: To test whether T1A can promote JNK3 phosphorylation by MKKs in cells, MKK4 or MKK7 was co-expressed with YFP-T1A in COS7 cells, using YFP and full-length arrestin-3 as negative and positive controls, respectively (FIG. 2C).
# COS-7 African green monkey cells were maintained in DMEM supplemented with 10% heat-inactivated FBS (Invitrogen), penicillin, and streptomycin at 37° C. in a humidified incubator with 5% CO2. The cells were plated at 80-90% confluence and transfected using Lipofectamine 2000 (Invitrogen) according to the manufacturer's instructions. Cells were used 48 h post-transfection and serum-starved overnight before experiments.
# COS-7 cells were incubated with phosphatase inhibitors (50 mM NaF and 10 mM Na3VO4) in serum-free medium for 15 min at 37° C.; washed with cold PBS; and lysed with SDS lysis buffer containing 1% SDS, 10 mM Tris (pH7.4), 10 mM NaF, 100 μM Na3VO4, 2 mM EDTA, 2 mM benzamidine and 1 mM PMSF. JNKs activity was assayed by Western blotting using an antibody specific for phosphorylated JNK to detect phosphorylated (active) JNKs^17,20,23. […] Protein was measured using the Bio-Rad Coomassie Blue assay. […] Protein bands were detected by enhanced chemiluminescence (ECL, Pierce), followed by exposure to x-ray film. To quantify phospho-JNKs, serial dilutions of anisomycin (1 μg/ml)-stimulated HEK-A cell lysates were used to ensure that all samples were in linear range. […]
# Sequence of MKK7-JNK3 module (Homo sapiens, UniProt O14733+P53779) (O14733 whole entry): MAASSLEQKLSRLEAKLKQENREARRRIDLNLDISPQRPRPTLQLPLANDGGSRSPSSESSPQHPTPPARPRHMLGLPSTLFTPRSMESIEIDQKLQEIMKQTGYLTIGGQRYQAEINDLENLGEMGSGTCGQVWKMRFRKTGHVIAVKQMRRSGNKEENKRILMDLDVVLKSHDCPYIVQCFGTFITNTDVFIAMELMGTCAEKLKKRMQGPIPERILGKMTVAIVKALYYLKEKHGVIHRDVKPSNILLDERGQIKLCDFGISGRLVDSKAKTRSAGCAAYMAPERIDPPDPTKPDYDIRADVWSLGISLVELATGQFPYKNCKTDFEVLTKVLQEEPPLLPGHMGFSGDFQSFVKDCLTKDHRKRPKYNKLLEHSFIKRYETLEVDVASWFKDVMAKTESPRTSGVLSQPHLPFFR
# Sequence of MKK7-JNK3 module (Homo sapiens, UniProt O14733+P53779) (P53779 whole entry): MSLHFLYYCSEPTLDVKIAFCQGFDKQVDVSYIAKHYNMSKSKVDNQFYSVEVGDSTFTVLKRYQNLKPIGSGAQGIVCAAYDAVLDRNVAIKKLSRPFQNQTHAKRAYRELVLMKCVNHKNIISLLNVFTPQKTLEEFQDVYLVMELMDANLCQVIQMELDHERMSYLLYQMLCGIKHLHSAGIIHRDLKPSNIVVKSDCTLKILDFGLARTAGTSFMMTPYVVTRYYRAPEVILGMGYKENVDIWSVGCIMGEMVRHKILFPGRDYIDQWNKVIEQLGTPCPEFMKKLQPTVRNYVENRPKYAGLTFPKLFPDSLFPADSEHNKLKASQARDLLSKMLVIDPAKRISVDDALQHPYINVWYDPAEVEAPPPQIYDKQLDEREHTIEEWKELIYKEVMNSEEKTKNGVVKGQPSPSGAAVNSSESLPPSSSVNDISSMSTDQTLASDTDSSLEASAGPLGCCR
sequence,measurement,setting,value
"MGEKPGTRVFKKSSPNCKLTVYLGK (bovine) [T1A, first 25 residues of arrestin-3]","optimal concentration relative to full-length arrestin-3, MKK7-JNK3 module",[1],~10 times lower
same,JNK3 phosphorylation level by MKK7 as a function of T1A concentration,"[1]; 50 nM MKK7, 1 μM JNK3α2, 10 sec, 30° C., synthetic purified peptide",bell-shaped curves
same,JNK3 phosphorylation by MKK7 in cells,[2],necessary and sufficient to promote the signaling
